In patent publication US20250361274A1, “PEPTIDE AND PEPTIDE-CONTAINING AGENT” (PEPTIDREAM INC., priority 2022, published 2025):
Square brackets hold non-standard residues; d marks the D form. Ends that are not written are not given here. Phe(4-COOH) = N[C@@H](Cc1ccc(C(=O)O)cc1)C(=O)O; NMePhe(3-Cl) = CN[C@@H](Cc1cccc(Cl)c1)C(=O)O; NMePhe(4-Cl) = CN[C@@H](Cc1ccc(Cl)cc1)C(=O)O; NMePhe(3-Me) = CN[C@@H](Cc1cccc(C)c1)C(=O)O; NMePhe(4-Me) = CN[C@@H](Cc1ccc(C)cc1)C(=O)O; Bip = N[C@@H](Cc1ccc(-c2ccccc2)cc1)C(=O)O; Phe(4-F) = N[C@@H](Cc1ccc(F)cc1)C(=O)O; cisHyp = O=C(O)[C@@H]1C[C@H](O)CN1; NMeF = CN[C@@H](Cc1ccccc1)C(=O)O; Aad = N[C@@H](CCCC(=O)O)C(=O)O; Cha = N[C@@H](CC1CCCCC1)C(=O)O; MeY = Methyl-L-tyrosine; Abu = CC[C@H](N)C(=O)O; βAla = NCCC(=O)O

Key:
BMP4 = biological target: T1, BMP4 (Homo sapiens, UniProt P12644); experiment: BMP4 signal transduction inhibitory activity: SMAD1 phosphorylation by BMP4 stimulus, AlphaLISA SureFire, A549 cells; format: cell-based; conditions: BMP4 0.2 nM stimulus
T1 sequence (P12644 293-408): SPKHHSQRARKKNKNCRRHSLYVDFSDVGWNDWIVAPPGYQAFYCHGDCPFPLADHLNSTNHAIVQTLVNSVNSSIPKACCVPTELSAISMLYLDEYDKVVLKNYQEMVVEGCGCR

BMP7 = biological target: T2, BMP7 (Homo sapiens, UniProt P18075); experiment: BMP7 signal transduction inhibitory activity: SMAD1 phosphorylation by BMP7 stimulus, A549 cells; format: cell-based; conditions: BMP7 10 nM stimulus
T2 sequence (P18075 293-431): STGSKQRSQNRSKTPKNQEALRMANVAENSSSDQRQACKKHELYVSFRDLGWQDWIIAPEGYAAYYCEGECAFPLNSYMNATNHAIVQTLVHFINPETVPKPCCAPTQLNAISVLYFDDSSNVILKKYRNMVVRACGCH
Method in brief: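 Cell line A549; stimulus BMP7 10 nM; endpoint pSMAD1. Peptide doses: three concentrations (1–1,000 nM range) or 8 × 1/3 dilutions from 100/1,000 nM.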

[1] = peptide conc. in assay 2, 20, 200 nM
[2] = peptide conc. in assay 10, 30, 90 nM
[3] = peptide conc. in assay 0.2, 2, 20 nM
[4] = peptide conc. in assay 1, 10, 100 nM

| Substance | aLISA BMP4 (0.2 nM) % inh (BMP4; [1]) | aLISA BMP7 (10 nM) % inh (BMP7; [2]) | aLISA BMP4 (0.2 nM) % inh (BMP4; [3]) | aLISA BMP7 (10 nM) % inh (BMP7; [4]) |
| --- | --- | --- | --- | --- |
| 387 (FG[MeY]G[Bip]GDD[Cha]A[NMeF]LHCG-NH2; not fully specified) [compound 387] | A (showed less than 30% of inhibitory activity in 2 nM-peptide-addition zone and showed 30% or more of inhibitory activity in 20 nM-addition zone) | F (showed less than 30% of inhibitory activity in 10 nM-addition zone and showed 30% or more of inhibitory activity in 30 nM-addition zone) | – | – |
| 388 (FG[NMeF]G[Bip]GDD[Cha]A[NMePhe(3-Cl)]LHCG-NH2; not fully specified) [compound 388] | B (showed less than 30% of inhibitory activity in 20 nM-addition zone and showed 30% or more of inhibitory activity in 200 nM-addition zone) | E (showed 30% or more of inhibitory activity in 10 nM-addition zone) | – | – |
| 389 (FG[NMeF]G[Bip]GDD[Cha]A[NMePhe(4-Cl)]LHCG-NH2; not fully specified) [compound 389] | B (showed less than 30% of inhibitory activity in 20 nM-addition zone and showed 30% or more of inhibitory activity in 200 nM-addition zone) | E (showed 30% or more of inhibitory activity in 10 nM-addition zone) | – | – |
| 390 (FG[NMeF]G[Bip]GDD[Cha]A[NMePhe(3-Me)]LHCG-NH2) [compound 390] | B (showed less than 30% of inhibitory activity in 20 nM-addition zone and showed 30% or more of inhibitory activity in 200 nM-addition zone) | E (showed 30% or more of inhibitory activity in 10 nM-addition zone) | – | – |
| 391 (FG[NMeF]G[Bip]GDD[Cha]AYLHCG-NH2; not fully specified (residue 11)) [compound 391] | A (showed less than 30% of inhibitory activity in 2 nM-peptide-addition zone and showed 30% or more of inhibitory activity in 20 nM-addition zone) | F (showed less than 30% of inhibitory activity in 10 nM-addition zone and showed 30% or more of inhibitory activity in 30 nM-addition zone) | – | – |
| 392 ([Phe(4-F)]G[NMeF]G[Bip]GDD[Cha]A[NMeF]LHCG-NH2; not fully specified) [compound 392] | – | – | A (showed less than 30% of inhibitory activity in 2 nM-peptide-addition zone and showed 30% or more of inhibitory activity in 20 nM-addition zone) | D (showed less than 30% of inhibitory activity in 10 nM-addition zone and showed 30% or more of inhibitory activity in 100 nM-addition zone) |
| 393 (FG[NMePhe(4-Me)]G[Bip]GDD[Cha]A[NMeF]LHCG-NH2; not fully specified) [compound 393] | – | – | A (showed less than 30% of inhibitory activity in 2 nM-peptide-addition zone and showed 30% or more of inhibitory activity in 20 nM-addition zone) | D (showed less than 30% of inhibitory activity in 10 nM-addition zone and showed 30% or more of inhibitory activity in 100 nM-addition zone) |
| 394 (FG[NMeF]G[Bip]GDD[Cha]A[NMePhe(4-Me)]LHCG-NH2; not fully specified) [compound 394] | – | – | ND (the inhibitory activity was less than 30% at the maximum concentration evaluated) | D (showed less than 30% of inhibitory activity in 10 nM-addition zone and showed 30% or more of inhibitory activity in 100 nM-addition zone) |
| 395 ([Phe(4-F)]G[NMePhe(4-Me)]G[Bip]GDD[Cha]A[NMeF]LHCG-NH2; not fully specified) [compound 395] | – | – | A (showed less than 30% of inhibitory activity in 2 nM-peptide-addition zone and showed 30% or more of inhibitory activity in 20 nM-addition zone) | D (showed less than 30% of inhibitory activity in 10 nM-addition zone and showed 30% or more of inhibitory activity in 100 nM-addition zone) |
| 396 ([Phe(4-F)]G[NMeF]G[Bip]GDD[Cha]A[NMePhe(4-Me)]LHCG-NH2; not fully specified) [compound 396] | – | – | A (showed less than 30% of inhibitory activity in 2 nM-peptide-addition zone and showed 30% or more of inhibitory activity in 20 nM-addition zone) | C (showed less than 30% of inhibitory activity in a zone to which the peptide was added in an amount of 1 nM and showed 30% or more of inhibitory activity in 10 nM-addition zone) |
| 397 (FG[NMePhe(4-Me)]G[Bip]GDD[Cha]A[NMePhe(4-Me)]LHCG-NH2; not fully specified) [compound 397] | – | – | ND (the inhibitory activity was less than 30% at the maximum concentration evaluated) | D (showed less than 30% of inhibitory activity in 10 nM-addition zone and showed 30% or more of inhibitory activity in 100 nM-addition zone) |
| 398 ([Phe(4-F)]G[NMePhe(4-Me)]G[Bip]GDD[Cha]A[NMePhe(4-Me)]LHCG-NH2; not fully specified) [compound 398] | – | – | A (showed less than 30% of inhibitory activity in 2 nM-peptide-addition zone and showed 30% or more of inhibitory activity in 20 nM-addition zone) | D (showed less than 30% of inhibitory activity in 10 nM-addition zone and showed 30% or more of inhibitory activity in 100 nM-addition zone) |
| 399 (FG[NMeF]G[Bip]GDE[Cha]Q[NMeF]L[Abu]CG-NH2; not fully specified) [compound 399] | – | – | ND (the inhibitory activity was less than 30% at the maximum concentration evaluated) | C (showed less than 30% of inhibitory activity in a zone to which the peptide was added in an amount of 1 nM and showed 30% or more of inhibitory activity in 10 nM-addition zone) |
| 400 (FG[NMeF]G[Bip]GDE[Cha]Q[NMeF]L[cisHyp]CG-NH2) [compound 400] | – | – | ND (the inhibitory activity was less than 30% at the maximum concentration evaluated) | C (showed less than 30% of inhibitory activity in a zone to which the peptide was added in an amount of 1 nM and showed 30% or more of inhibitory activity in 10 nM-addition zone) |
| 401 (FG[NMeF]G[Bip]GDE[Cha][Aad][NMeF]L[Phe(4-COOH)]CG-NH2; not fully specified) [compound 401] | – | – | ND (the inhibitory activity was less than 30% at the maximum concentration evaluated) | C (showed less than 30% of inhibitory activity in a zone to which the peptide was added in an amount of 1 nM and showed 30% or more of inhibitory activity in 10 nM-addition zone) |
| 402 (FG[NMeF]G[Bip]GDE[Cha][Aad][NMeF]L[Abu]CG-NH2; not fully specified) [compound 402] | – | – | ND (the inhibitory activity was less than 30% at the maximum concentration evaluated) | C (showed less than 30% of inhibitory activity in a zone to which the peptide was added in an amount of 1 nM and showed 30% or more of inhibitory activity in 10 nM-addition zone) |
| 403 (FG[NMeF]G[Bip]GDE[Cha][Aad][NMeF]L[cisHyp]CG-NH2; not fully specified) [compound 403] | – | – | ND (the inhibitory activity was less than 30% at the maximum concentration evaluated) | C (showed less than 30% of inhibitory activity in a zone to which the peptide was added in an amount of 1 nM and showed 30% or more of inhibitory activity in 10 nM-addition zone) |
| 404 (FG[NMeF]G[Bip]GDE[Cha]Q[NMeF]L[Phe(4-COOH)]C-NH2; not fully specified) [compound 404] | – | – | ND (the inhibitory activity was less than 30% at the maximum concentration evaluated) | C (showed less than 30% of inhibitory activity in a zone to which the peptide was added in an amount of 1 nM and showed 30% or more of inhibitory activity in 10 nM-addition zone) |
| 405 (FG[NMeF]G[Bip]GDE[Cha]Q[NMeF]L[Phe(4-COOH)]CG; not fully specified) [compound 405] | – | – | ND (the inhibitory activity was less than 30% at the maximum concentration evaluated) | D (showed less than 30% of inhibitory activity in 10 nM-addition zone and showed 30% or more of inhibitory activity in 100 nM-addition zone) |
| 406 (FG[NMeF]G[Bip]GDE[Cha]Q[NMeF]L[Phe(4-COOH)]C[βAla]) [compound 406] | – | – | ND (the inhibitory activity was less than 30% at the maximum concentration evaluated) | D (showed less than 30% of inhibitory activity in 10 nM-addition zone and showed 30% or more of inhibitory activity in 100 nM-addition zone) |
| 407 (FG[NMeF]G[Bip]GDE[Cha]Q[NMeF]L[Phe(4-COOH)]C[βAla][dE]) [compound 407] | – | – | ND (the inhibitory activity was less than 30% at the maximum concentration evaluated) | C (showed less than 30% of inhibitory activity in a zone to which the peptide was added in an amount of 1 nM and showed 30% or more of inhibitory activity in 10 nM-addition zone) |
| 408 (FG[NMeF]G[Bip]GDE[Cha][Aad][NMeF]L[Phe(4-COOH)]C-NH2) [compound 408] | – | – | ND (the inhibitory activity was less than 30% at the maximum concentration evaluated) | C (showed less than 30% of inhibitory activity in a zone to which the peptide was added in an amount of 1 nM and showed 30% or more of inhibitory activity in 10 nM-addition zone) |
| 409 (FG[NMeF]G[Bip]GDE[Cha][Aad][NMeF]L[Phe(4-COOH)]C[βAla][dE]) [compound 409] | – | – | ND (the inhibitory activity was less than 30% at the maximum concentration evaluated) | D (showed less than 30% of inhibitory activity in 10 nM-addition zone and showed 30% or more of inhibitory activity in 100 nM-addition zone) |
